{"source": "paper PMC9610346", "key": {"[1]": {"molecular_target": "gp145 SOSIP construct of the Env spike protein from the HIV-1 BG505 clade A strain, nanodisc-embedded trimer (HIV-1 strain BG505 (clade A))", "experiment": "negative-stain EM"}, "[2]": {"molecular_target": "gp145 SOSIP construct of the Env spike protein from the HIV-1 BG505 clade A strain, nanodisc-embedded trimer (HIV-1 strain BG505 (clade A))", "experiment": "cryo-EM structure"}}, "data": [{"substance": "gp145 SOSIP construct of the Env spike protein from the HIV-1 BG505 clade A strain, nanodisc-embedded trimer (complex)", "values": [{"measurement": "stoichiometry N", "setting": "[1]", "value": 3}, {"measurement": "stoichiometry N", "setting": "[2]", "value": 3}]}]}
